Columns and labels:
[1] = molecular target: PHF2(1–451), N-terminal half of human PHF2 with the PHD and Jumonji domains (residues 1–451) (human) (UniProt O75151); assay: ITC
[2] = molecular target: PHF2(1–70), PHD domain of human PHF2 (residues 1–70) (human) (UniProt O75151); assay: ITC
Chain of PHF2(1–70), PHD domain of human PHF2 (residues 1–70) (human) (O75151 1-70): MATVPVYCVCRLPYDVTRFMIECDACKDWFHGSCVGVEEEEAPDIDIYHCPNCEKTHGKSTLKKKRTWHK

Chain of PHF2(1–451), N-terminal half of human PHF2 with the PHD and Jumonji domains (residues 1–451) (human) (O75151 1-451): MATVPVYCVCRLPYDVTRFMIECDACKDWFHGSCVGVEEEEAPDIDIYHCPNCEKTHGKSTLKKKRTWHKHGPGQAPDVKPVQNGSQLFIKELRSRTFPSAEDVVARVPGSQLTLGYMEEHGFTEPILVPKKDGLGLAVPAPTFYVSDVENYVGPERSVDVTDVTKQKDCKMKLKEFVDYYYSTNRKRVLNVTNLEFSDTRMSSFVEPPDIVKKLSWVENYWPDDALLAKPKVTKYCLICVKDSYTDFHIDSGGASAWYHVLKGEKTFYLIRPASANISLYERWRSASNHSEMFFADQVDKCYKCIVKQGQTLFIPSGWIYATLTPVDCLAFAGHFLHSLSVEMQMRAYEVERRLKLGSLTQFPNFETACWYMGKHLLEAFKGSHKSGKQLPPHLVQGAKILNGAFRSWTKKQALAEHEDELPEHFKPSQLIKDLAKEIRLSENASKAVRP

## VRK1(1-12)K4me3 peptide (12-mer of the N-terminus of vaccinia-related kinase 1, trimethylated at lysine 4)
[1]
  Kd: 42 nM
[2]
  Kd: 900 nM

— paper PMC9898751
